Data published in patent publication US12102667B2, “Polypeptides and antibiotics against gram-negative bacterium comprising the same” (priority 2021, dated 2024).

Experiments:
E. coli [1] = assay: MIC and MBC, broth microdilution in CAA medium; type: cell-based, Escherichia coli
Protocol: (§1) The MIC of the LNT113 or antibiotic was determined using modification of the broth microdilution method in a 96-well, round bottom, microplate according to the previously described method (Heselpoth et al., 2019). Exponentially grown cells were diluted to a concentration of 10^6 CFU/ml in a CAA medium, and then cultured with recombinant LNT113 (1-64 μg/ml) or antibiotics at 35° C. for 20 hours. […] The MBC was defined as the lowest concentration of the antibacterial agent with no growth on a plate. All analyses were performed in duplicate.

P. aeruginosa = assay: MIC, broth microdilution; type: cell-based, Pseudomonas aeruginosa
Protocol: as §1

K. pneumoniae = assay: MIC, broth microdilution; type: cell-based, Klebsiella pneumoniae
Protocol: as §1

E. cloacae = assay: MIC, broth microdilution; type: cell-based, Enterobacter cloacae
Protocol: as §1

Salmonella enteritidis = assay: MIC, broth microdilution; type: cell-based
Protocol: as §1

Salmonella typhimurium = assay: MIC, broth microdilution; type: cell-based
Protocol: as §1

[2] = system: various gram-negative bacterium; assay: MIC, summary over Table 4 strains; type: cell-based; conditions: strains of Table 4
Protocol: as §1

E. coli [3] = assay: Checkerboard assay (MIC in combination, FIC index); type: cell-based, Escherichia coli
Protocol: LNT113 was vertically diluted 2-fold and the antibiotic was serially diluted horizontally in a 96-well plate. Bacterium at a concentration of 10^6 CFU/ml were added to each well in a CAA medium. […] The fractional inhibitory concentration (FIC) for the LNT113 or antibiotic was calculated by dividing the MIC of two drugs by combining it with the MIC of each drug alone. […] The FICI was considered as a synergistic effect ≤0.5, an additive >0.5 ˜≤1, an independent effect (indifference)>1.0 ˜≤2, and an antagonistic effect (antagonism) >2.

E. coli ATCC 8739 = assay: 1-N-phenylnaphthylamine (NPN) absorption analysis, outer membrane permeability; type: cell-based, Escherichia coli; conditions: 2 μM
Protocol: NPN absorption analysis was performed by the previously described method (Helander and Mattila-Sandholm, 2000). In other words, E. coli ATCC 8739 grown to an exponential phase (OD600=0.4) was washed and resuspended with buffer solution (5 mM HEPES, pH 7.2) to about 10^8 cells/ml. 40 μM NPN (Sigma-Aldrich) 50 μl was mixed with the purified endolysin or Cecropin A (AbClon, Korea) 50 μl so that the final concentration was 2 μM in a 96-well black plate. Outer membrane permeation agents, 1 mM EDTA (Duchefa) and 2 μM Polymyxin B (Sigma-Aldrich) were used as a positive control group. Then, cell suspension 100 μl was added to each well, and cultured at 37° C. for 5 minutes. Buffer alone, buffer+NPN, cell suspension+buffer and cell suspension+buffer+NPN were used as a negative control group. Fluorescence was measured at excitation (350 nm) and emission (420 nm) using a microplate reader (SpectraMax iD3, Molecular Devices, USA). An NPN absorption factor was calculated by dividing the fluorescence value after background removal (the value that the value without NPN subtracted from the fluorescence value of the cell mixture with the sample) with the fluorescence value of the cell suspension with buffer subtracted from the fluorescence value of buffer without NPN.

B1: LNT113: fusion polypeptide: Cecropin A, (GGGGS)3 linker, mutant endolysin mtEC340; recombinant form with C-terminal His tag (protein)
chain: MKWKLFKKIEKVGQNIRDGIIKAGPAVAVVGQATQIAKGGGGSGGGGSGGGGSVSRNISNNGIKFTAAFEGFRGTAYRATPNEKYLTIGYGSYGPHVEPGKTITPGQGLLLLNRDMAKAVAAVDAVAHHSLTQSQFDAVCDLVYNAGAGVIAAATGTGKALRSGDVATLRAKLALFINQNGKPLLGLRRRTAGRLALFDGKPWQEAEAIGRAVKG
modifications: synthetic_Met+Cecropin A+GGGGS3 linker+mtEC340
notes: fusion polypeptide: Cecropin A, (GGGGS)3 linker, mutant endolysin mtEC340; recombinant form with C-terminal His tag
Molecule B1 has an MBC (E. coli [1]; E. coli ATCC 8739) of 8 µg/mL, an MIC (E. coli [1]; E. coli ATCC 8739) of 8 µg/mL and an MBC (E. coli [1]; E. coli ATCC 25922) of 64 µg/mL. The MIC (E. coli [1]; E. coli ATCC 25922) was 64 µg/mL, the MBC (E. coli [1]; E. coli ATCC 51739) was 8 µg/mL and the MIC (E. coli [1]; E. coli ATCC 51739) was 8 µg/mL. The MBC (E. coli [1]; E. coli CCARM 1A746) was 4 µg/mL, the MIC (E. coli [1]; E. coli CCARM 1A746) was 4 µg/mL and the MBC (E. coli [1]; E. coli CCARM 1G490) was 16 µg/mL. The MIC (E. coli [1]; E. coli CCARM 1G490) was 16 µg/mL, the MBC (E. coli [1]; E. coli ECOR 1) was 8 µg/mL and the MIC (E. coli [1]; E. coli ECOR 1) was 8 µg/mL. For the same molecule, the MBC (E. coli [1]; E. coli ECOR 2) was 8 µg/mL, the MIC (E. coli [1]; E. coli ECOR 2) was 8 µg/mL and the MBC (E. coli [1]; E. coli ECOR 9) was 4 µg/mL. For the same molecule, the MIC (E. coli [1]; E. coli ECOR 9) was 4 µg/mL, the MBC (E. coli [1]; E. coli ECOR 15) was 32 µg/mL and the MIC (E. coli [1]; E. coli ECOR 15) was 32 µg/mL. For the same molecule, the MBC (E. coli [1]; E. coli ECOR 35) was 16 µg/mL, the MIC (E. coli [1]; E. coli ECOR 35) was 16 µg/mL and the MBC (E. coli [1]; E. coli ECOR 36) was >64 µg/mL. For the same molecule, the MIC (E. coli [1]; E. coli ECOR 36) was >64 µg/mL, the MBC (E. coli [1]; E. coli ECOR 43) was 16 µg/mL and the MIC (E. coli [1]; E. coli ECOR 43) was 16 µg/mL. For the same molecule, the MBC (E. coli [1]; E. coli ECOR 45) was 4 µg/mL, the MIC (E. coli [1]; E. coli ECOR 45) was 4 µg/mL and the MBC (E. coli [1]; E. coli ECOR 52) was >64 µg/mL. For the same molecule, the MIC (E. coli [1]; E. coli ECOR 52) was 64 µg/mL, the MBC (E. coli [1]; E. coli ECOR 69) was >64 µg/mL and the MIC (E. coli [1]; E. coli ECOR 69) was >64 µg/mL. The MBC (E. coli [1]; E. coli F485) was 4 µg/mL, the MIC (E. coli [1]; E. coli F485) was 4 µg/mL and the MBC (E. coli [1]; E. coli F524) was 8 µg/mL. For the same molecule, the MIC (E. coli [1]; E. coli F524) was 8 µg/mL, the MBC (E. coli [1]; E. coli F576) was 4 µg/mL and the MIC (E. coli [1]; E. coli F576) was 4 µg/mL. The MBC (E. coli [1]; E. coli F716) was >64 µg/mL, the MIC (E. coli [1]; E. coli F716) was >64 µg/mL and the MBC (E. coli [1]; E. coli F852) was 16 µg/mL. For the same molecule, the MIC (E. coli [1]; E. coli F852) was 8 µg/mL, the MBC (E. coli [1]; E. coli FORC81) was 8 µg/mL and the MIC (E. coli [1]; E. coli FORC81) was 8 µg/mL. It also gave an MBC (E. coli [1]; E. coli UPEC 90) of 64 µg/mL, an MIC (E. coli [1]; E. coli UPEC 90) of 64 µg/mL and an MBC (E. coli [1]; E. coli UPEC 3038) of 16 µg/mL. For the same molecule, the MIC (E. coli [1]; E. coli UPEC 3038) was 16 µg/mL, the MBC (E. coli [1]; E. coli UPEC 3042) was 16 µg/mL and the MIC (E. coli [1]; E. coli UPEC 3042) was 16 µg/mL. It also gave an MBC (E. coli [1]; E. coli UPEC 3051) of 16 µg/mL, an MIC (E. coli [1]; E. coli UPEC 3051) of 16 µg/mL and an MBC (E. coli [1]; E. coli UPEC 3150) of 8 µg/mL. It also gave an MIC (E. coli [1]; E. coli UPEC 3150) of 8 µg/mL, an MBC (E. coli [1]; E. coli UPEC 3151) of 64 µg/mL and an MIC (E. coli [1]; E. coli UPEC 3151) of 64 µg/mL. For the same molecule, the MBC (E. coli [1]; E. coli UPEC 3163) was 16 µg/mL, the MIC (E. coli [1]; E. coli UPEC 3163) was 16 µg/mL and the MBC (E. coli [1]; E. coli UPEC 3164) was 32 µg/mL. For the same molecule, the MIC (E. coli [1]; E. coli UPEC 3164) was 32 µg/mL, the MBC (E. coli [1]; E. coli UPEC 3168) was 8 µg/mL and the MIC (E. coli [1]; E. coli UPEC 3168) was 8 µg/mL. The MBC (E. coli [1]; E. coli UPEC 3181) was 8 µg/mL, the MIC (E. coli [1]; E. coli UPEC 3181) was 8 µg/mL and the “MBC compared with MIC” value (E. coli [1]; various E. coli strains) was “same as MIC”. The “MIC in most of the strains” value (E. coli [1]; various E. coli strains of Table 2) was 4 to 64 µg/mL, the MIC (P. aeruginosa; P. aeruginosa ATCC 15522) was 8 µg/mL and the MIC (P. aeruginosa; P. aeruginosa F102) was 16 µg/mL. The MIC (P. aeruginosa; P. aeruginosa F125) was 4 µg/mL, the MIC (P. aeruginosa; P. aeruginosa F141) was 16 µg/mL and the MIC (P. aeruginosa; P. aeruginosa F171) was 32 µg/mL. The MIC (P. aeruginosa; P. aeruginosa F388) was 32 µg/mL, the MIC (P. aeruginosa; P. aeruginosa PA01) was 4 µg/mL and the MIC (K. pneumoniae; K. pneumoniae ATCC 700603) was 16 µg/mL. The MIC (K. pneumoniae; K. pneumoniae CCARK 10143) was 4 µg/mL, the MIC (K. pneumoniae; K. pneumoniae F144) was 16 µg/mL and the MIC (K. pneumoniae; K. pneumoniae Fil8) was 16 µg/mL. For the same molecule, the MIC (K. pneumoniae; K. pneumoniae KCTO 2208) was 8 µg/mL, the MIC (K. pneumoniae; K. pneumoniae P1O4) was 16 µg/mL and the MIC (E. cloacae; E. cloacae ATCC 13047) was 16 µg/mL. For the same molecule, the MIC (E. cloacae; E. cloacae CCARM 0252) was 4 µg/mL, the MIC (E. cloacae; E. cloacae CCARM 16003) was 8 µg/mL and the MIC (Salmonella enteritidis) was > 64 µg/mL. For the same molecule, the MIC (Salmonella typhimurium) was > 64 µg/mL, the MIC range [2] was 4 to 32 µg/mL and the “MIC of endolysin combined with colistin: LNT113” value (“MIC of endolysin combined” below) (E. coli [3]; E. coli ATOCB739, Colistin 0) was 8 µg/mL. For the same molecule, the “MIC of endolysin combined” value (E. coli [3]; E. coli ATOCB739, Colistin 0.0625) was 4 µg/mL, the “MIC of endolysin combined” value (E. coli [3]; E. coli ATOCB739, Colistin 0.5) was 2 µg/mL and the “MIC of endolysin combined” value (E. coli [3]; E. coli ATOCB739, Colistin 1) was 1 µg/mL. For the same molecule, the “MIC of endolysin combined” value (E. coli [3]; E. coli FORC81, Colistin 0) was 8 µg/mL, the “MIC of endolysin combined” value (E. coli [3]; E. coli FORC81, Colistin 1) was 4 µg/mL and the “MIC of endolysin combined” value (E. coli [3]; E. coli FORC81, Colistin 4) was 2 µg/mL. The “MIC of endolysin combined” value (E. coli [3]; E. coli FORC81, Colistin 8) was <0.25 µg/mL, the “MIC of endolysin combined” value (E. coli [3]; E. coli UPEC3150, Colistin 0) was 8 µg/mL and the “MIC of endolysin combined” value (E. coli [3]; E. coli UPEC3150, Colistin 0.0625) was 4 µg/mL. For the same molecule, the “MIC of endolysin combined” value (E. coli [3]; E. coli UPEC3150, Colistin 0.5) was 2 µg/mL, the “MIC of endolysin combined” value (E. coli [3]; E. coli UPEC3150, Colistin 2) was 1 µg/mL and the “increase of membrane penetration (NPN)” value (E. coli ATCC 8739) was 1.8 times. For the same molecule, the “membrane penetration relative to cecropin A alone (NPN)” value (E. coli ATCC 8739) was 1.3 fold.
